# Experimental data reported in patent US20200010546A1 (TRICAN BIOTECHNOLOGY, published 2020).
# Assays:
# [1] = biological target: T1, recombinant human CD47-Fc protein (R&D Systems, USA) (human, UniProt Q08722 19-139); test: titration ELISA on coated CD47-Fc
# T1 construct: Bought from R&D Systems; also called CD47-Fc fusion protein; recombinant CD47; not shown: Fc part of the bought fusion
# [2] = biological target: T2, recombinant human His-tagged SIRP-α protein (R&D Systems, USA) (human, UniProt P78324 31-370, limits assumed); test: direct ELISA, SIRP-α coated at 1 µg/ml
# T2 construct: Bought from R&D Systems; also called signal-regulatory protein alpha; not shown: His tag
# [3] = biological target: T1, recombinant human CD47-Fc protein (R&D …); test: ELISA of Fab supernatant on coated CD47-Fc
# [4] = biological target: T1, recombinant human CD47-Fc protein (R&D …); test: blocking ELISA: CD47-Fc (1 µg/ml) binding to coated His-tagged SIRP-α
# T2 sequence (P78324 31-370 limits assumed): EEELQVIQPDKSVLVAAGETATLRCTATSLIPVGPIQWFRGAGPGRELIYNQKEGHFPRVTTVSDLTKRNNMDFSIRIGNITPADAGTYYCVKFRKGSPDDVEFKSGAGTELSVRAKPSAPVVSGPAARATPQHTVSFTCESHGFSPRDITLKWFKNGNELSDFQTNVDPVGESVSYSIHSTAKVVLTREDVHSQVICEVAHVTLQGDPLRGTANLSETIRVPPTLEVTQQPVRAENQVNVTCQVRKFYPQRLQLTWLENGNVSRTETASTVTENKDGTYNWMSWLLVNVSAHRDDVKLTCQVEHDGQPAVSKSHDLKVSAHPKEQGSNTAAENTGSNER
# T1 sequence (Q08722 19-139 limits assumed): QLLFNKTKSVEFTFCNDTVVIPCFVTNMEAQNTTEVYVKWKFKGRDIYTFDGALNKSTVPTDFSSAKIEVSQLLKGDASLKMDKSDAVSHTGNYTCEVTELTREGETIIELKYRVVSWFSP
EC50 [1],binding result [2],OD450 [3],IC50 [4],Binder
1.21 nM,no binding (tested: 0.5 µg/ml),–,–,"BrP1F11 (IgG4-reformatted anti-CD47 antibody) (antibody, V domains shown, Full-length human IgG4, expressed in HEK293 cells; also called BrP1F11-G4) VH: QVQLVQSGAEVKKPGASVKISCKASGYTFTTYHIHWVRQAPGQGLEWMGVINSNAGNTGYAQNFQDRVTMTRDTSTSTVYMELRSLKSDDTAVYYCAKDPGMGWYMHHWGQGTLVTVSS VL: NFMLTQPQSVSGSPGETVTISCTGSGGPIASNYVQWYQQRPGSVPTTVIYEDTKRPSGVPDRFSGSIDSSSNSASLTISGLKTEDEADYYCQSYESRNYVFGTGTKVSVLS"
–,–,> 0.5 OD450,–,"BrP1F11 Fab (library clone) (Fab, V domains shown, Fab in bacterial supernatant) VH: QVQLVQSGAEVKKPGASVKISCKASGYTFTTYHIHWVRQAPGQGLEWMGVINSNAGNTGYAQNFQDRVTMTRDTSTSTVYMELRSLKSDDTAVYYCAKDPGMGWYMHHWGQGTLVTVSS VL: NFMLTQPQSVSGSPGETVTISCTGSGGPIASNYVQWYQQRPGSVPTTVIYEDTKRPSGVPDRFSGSIDSSSNSASLTISGLKTEDEADYYCQSYESRNYVFGTGTKVSVLS"
0.326 nM,no binding (tested: 0.5 µg/ml),–,0.068 nM,"CwP2F8 (IgG4-reformatted anti-CD47 antibody) (antibody, V domains shown, Full-length human IgG4, expressed in HEK293 cells) VH: QVQLVQSGAEVKKPGSSVKVSCKASGGTFSSYAISWVRQAPGQGLEWMGRIIPILGIANYAQKFQGRVTITADKSTSTAYMELSSLRSEDTAVYYCARSLRWLHRVFDYWGQGTTVTVSS VL: QSVLTQPASVSGSPGQSITISCTGTSSDVGGYNYVSWYQQHPGKAPKLIIFDVINRPSGVSSRFSGSKSGTSATLVITGLQTGDEADYYCGTWDNSLRAYVFGSGTNVTALG"
–,–,> 0.5 OD450,–,"CwP2F8 Fab (library clone) (Fab, V domains shown, Fab in bacterial supernatant) VH: QVQLVQSGAEVKKPGSSVKVSCKASGGTFSSYAISWVRQAPGQGLEWMGRIIPILGIANYAQKFQGRVTITADKSTSTAYMELSSLRSEDTAVYYCARSLRWLHRVFDYWGQGTTVTVSS VL: QSVLTQPASVSGSPGQSITISCTGTSSDVGGYNYVSWYQQHPGKAPKLIIFDVINRPSGVSSRFSGSKSGTSATLVITGLQTGDEADYYCGTWDNSLRAYVFGSGTNVTALG"
10.1 nM,no binding (tested: 0.5 µg/ml),–,–,"BrP1F3 (IgG4-reformatted anti-CD47 antibody) (antibody, V domains shown, Full-length human IgG4, expressed in HEK293 cells) VH: QVQLVQSGAEVKKPGASVKVSCKASGYTFTSYYMHWVRQAPGQGLEWMGIINPSGGSTSYAQKFQGRVTMTRDTSTSTVYMELSSLRSEDTAVYYCARGGTLGMDVWGQGTTVTVSS VL: SSELTQDPAVSVALGQTVRITCQGDSLRSYYASWYQQKPGQAPVLVIYGKNNRPSGIPDRFSGSSSGNTASLTITGAQAEDEADYYCNSRDSSGNHYVFGTGTKVTVLG"
–,–,> 0.5 OD450,–,"BrP1F3 Fab (library clone) (Fab, V domains shown, Fab in bacterial supernatant) VH: QVQLVQSGAEVKKPGASVKVSCKASGYTFTSYYMHWVRQAPGQGLEWMGIINPSGGSTSYAQKFQGRVTMTRDTSTSTVYMELSSLRSEDTAVYYCARGGTLGMDVWGQGTTVTVSS VL: SSELTQDPAVSVALGQTVRITCQGDSLRSYYASWYQQKPGQAPVLVIYGKNNRPSGIPDRFSGSSSGNTASLTITGAQAEDEADYYCNSRDSSGNHYVFGTGTKVTVLG"
0.441 nM,no binding (tested: 0.5 µg/ml),–,0.063 nM,"CwP2F12 (IgG4-reformatted anti-CD47 antibody) (antibody, V domains shown, Full-length human IgG4, expressed in HEK293 cells) VH: QVQLVQSGAEVKKPGASVRLSCKASGYTFSSYYMHWVRQAPGQGLVWMGTSIPTAASGSYAQKFQGRVTMTRDTSTTTVYMELSSLRSEDTAVYYCARGGRGGFDYWGQGTPVTVSS VL: QPGLTQPPSVSKGLRRTATLTCTGNSNNVGNQGAVWLQQHQGHPPKLLSYRNNNRPSGISERFSASRSANTASLTITGLQPEDEADYYCSAWDSSLSGWVFGGGTKLTVLG"
–,–,> 0.5 OD450,–,"CwP2F12 Fab (library clone) (Fab, V domains shown, Fab in bacterial supernatant) VH: QVQLVQSGAEVKKPGASVRLSCKASGYTFSSYYMHWVRQAPGQGLVWMGTSIPTAASGSYAQKFQGRVTMTRDTSTTTVYMELSSLRSEDTAVYYCARGGRGGFDYWGQGTPVTVSS VL: QPGLTQPPSVSKGLRRTATLTCTGNSNNVGNQGAVWLQQHQGHPPKLLSYRNNNRPSGISERFSASRSANTASLTITGLQPEDEADYYCSAWDSSLSGWVFGGGTKLTVLG"
–,–,> 0.5 OD450,–,"CwP1A1 Fab (library clone) (Fab, V domains shown, Fab in bacterial supernatant) VH: QITLKESGPTLVKPTQTLTLTCTFSGFSLSTRGVGVGWIRQPPGKALEWLALIYWNDDKRYSPSLKSRLTITKDTSKNQVVLTMTNMDPVDTATYYCAHLITFGGRRAFDIWGQGTMVTVSS VL: not shown"
–,–,> 0.5 OD450,–,"CwP1C4 Fab (library clone) (Fab, V domains shown, Fab in bacterial supernatant) VH: QVTLKESGPTLVKPTQTLTLTCTFSGLSLSTSGVGVGWIRQPPGKALEWLALIYWNDDKRYSPSLKSRLTVTKDTSKNQVVLTMTNMDPVDTATYYCAHLITFGGRRAFDIWGQGTMVTVSS VL: not shown"
0.227 nM,no binding (tested: 0.5 µg/ml),–,0.155 nM,"CwP1C4 (IgG4-reformatted anti-CD47 antibody) (antibody, V domains shown, Full-length human IgG4, expressed in HEK293 cells) VH: QVTLKESGPTLVKPTQTLTLTCTFSGLSLSTSGVGVGWIRQPPGKALEWLALIYWNDDKRYSPSLKSRLTVTKDTSKNQVVLTMTNMDPVDTATYYCAHLITFGGRRAFDIWGQGTMVTVSS VL: not shown"
